From paper PMC10102205, “Active and stable alcohol dehydrogenase-assembled hydrogels via synergistic bridging of triazoles and metal ions” (Nature Communications, 2023)

T1: TbSADH (Thermoanaerobacter brockii, UniProt P14941)
T1 construct: gene adh; recombinant from E. coli BL21(DE3), pET28a or pET22b vector, purified by AKTA; homotetramer
T1 sequence (P14941 1-352): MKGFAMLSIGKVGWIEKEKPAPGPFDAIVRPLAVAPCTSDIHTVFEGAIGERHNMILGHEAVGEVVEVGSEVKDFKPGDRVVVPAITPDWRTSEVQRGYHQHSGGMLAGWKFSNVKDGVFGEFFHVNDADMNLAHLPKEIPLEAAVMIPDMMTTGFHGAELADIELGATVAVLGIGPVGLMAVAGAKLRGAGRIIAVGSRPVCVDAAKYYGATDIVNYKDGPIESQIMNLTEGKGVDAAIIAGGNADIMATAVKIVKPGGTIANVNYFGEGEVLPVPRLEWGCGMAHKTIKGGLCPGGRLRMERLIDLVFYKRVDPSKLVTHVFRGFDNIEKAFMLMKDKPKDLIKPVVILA


Experiments:
TbSADH = biological target: T1, TbSADH; experiment: isothermal titration calorimetry; type: binding
[1] = substrate: CC(=O)c1ccccc1; experiment: asymmetric reduction, chiral HPLC, Michaelis–Menten fit; type: biochemical, Thermoanaerobacter brockii; settings: free enzyme, not gelated, general assay: NADP^+ 1 mM, 10% IPA, phosphate buffer 50 mM pH 7.4, 30 °C

Molecule | Kd (TbSADH) [µM] | Km [1] [mM] | kcat [1] [s⁻¹]
Cc1nnc[nH]1 [3-Me-3N, 1H-3-methyl-1,2,4-triazole] | 770 |  | 
TbSADH (Thermoanaerobacter brockii) (protein, recombinant from E. coli BL21(DE3), pET28a or pET22b vector, purified by AKTA; homotetramer) MKGFAMLSIGKVGWIEKEKPAPGPFDAIVRPLAVAPCTSDIHTVFEGAIGERHNMILGHEAVGEVVEVGSEVKDFKPGDRVVVPAITPDWRTSEVQRGYHQHSGGMLAGWKFSNVKDGVFGEFFHVNDADMNLAHLPKEIPLEAAVMIPDMMTTGFHGAELADIELGATVAVLGIGPVGLMAVAGAKLRGAGRIIAVGSRPVCVDAAKYYGATDIVNYKDGPIESQIMNLTEGKGVDAAIIAGGNADIMATAVKIVKPGGTIANVNYFGEGEVLPVPRLEWGCGMAHKTIKGGLCPGGRLRMERLIDLVFYKRVDPSKLVTHVFRGFDNIEKAFMLMKDKPKDLIKPVVILA |  | 17.86 | 2.46
